Results reported in article PMC2115109.
pKd: −log10 of the molar value. “And” between values parts separate entries of the source, which are not always exact repeats. Identical values can stand only once.

How the values were obtained:
[1] = target: monomeric actin from rabbit skeletal muscle (rabbit) (UniProt P68135); assay: pull-down
[2] = target: F-actin (actin filaments) from rabbit skeletal muscle (rabbit) (UniProt P68135); assay: co-sedimentation

Chain of CT28N, 28-kD chymotryptic fragment from the NH2-terminal half of human plasma gelsolin (domain or fragment) (P06396 151-406): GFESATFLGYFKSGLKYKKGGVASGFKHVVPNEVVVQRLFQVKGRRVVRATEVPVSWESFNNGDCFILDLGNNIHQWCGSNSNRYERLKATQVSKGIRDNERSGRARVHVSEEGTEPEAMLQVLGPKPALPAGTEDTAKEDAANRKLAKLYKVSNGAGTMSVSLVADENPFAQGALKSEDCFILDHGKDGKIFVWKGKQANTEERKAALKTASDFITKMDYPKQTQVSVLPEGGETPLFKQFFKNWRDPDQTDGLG
Chain of CT45N, 45-kD NH2-terminal half chymotryptic fragment of human plasma gelsolin (domain or fragment) (P06396 1-406): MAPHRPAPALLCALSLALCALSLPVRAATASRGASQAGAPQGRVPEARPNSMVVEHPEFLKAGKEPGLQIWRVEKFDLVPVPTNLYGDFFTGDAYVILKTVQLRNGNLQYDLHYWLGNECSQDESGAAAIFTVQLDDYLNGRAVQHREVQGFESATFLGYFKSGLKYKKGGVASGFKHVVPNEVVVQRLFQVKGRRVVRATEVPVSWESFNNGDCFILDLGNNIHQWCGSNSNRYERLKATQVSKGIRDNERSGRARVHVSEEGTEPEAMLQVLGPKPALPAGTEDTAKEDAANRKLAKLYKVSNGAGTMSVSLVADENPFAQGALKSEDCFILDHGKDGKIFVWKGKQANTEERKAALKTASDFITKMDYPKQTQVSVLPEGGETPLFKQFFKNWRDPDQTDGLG

| Ka [2] [M⁻¹] | pKd [2] | percent of input sedimented [2] [%] | Substance | radioactivity on the beads [1] [cpm] | percent sedimented [2] [%] |
| --- | --- | --- | --- | --- | --- |
|  |  |  | CT45N, 45-kD NH2-terminal half chymotryptic fragment of human plasma gelsolin (domain or fragment) | 540 | 67 |
| 5e+06 | 6.70 and 6.55 | 100 | CT28N, 28-kD chymotryptic fragment from the NH2-terminal half of human plasma gelsolin (domain or fragment) |  | 100 |
